{"source": "paper PMC5727187", "about": "“Insights into the structure and assembly of a bacterial cellulose secretion system” (Nature Communications, 2017)", "proteins": {"B1": {"name": "BcsB (recombinant, BL21) (natural protein, E. coli 1094, UniProt P37652 26-779, looked up)", "chain": "TPATQPLINAEPAVAAQTEQNPQVGQVMPGVQGADAPVVAQNGPSRDVKLTFAQIAPPPGSMVLRGINPNGSIEFGMRSDEVVTKAMLNLEYTPSPSLLPVQSQLKVYLNDELMGVLPVTKEQLGKKTLAQMPINPLFISDFNRVRLEFVGHYQDVCEKPASTTLWLDVGRSSGLDLTYQTLNVKNDLSHFPVPFFDPSDNRTNTLPMVFAGAPDVGLQQASAIVASWFGSRSGWRGQNFPVLYNQLPDRNAIVFATNDKRPDFLRDHPAVKAPVIEMINHPQNPYVKLLVVFGRDDKDLLQAAKGIAQGNILFRGESVVVNEVKPLLPRKPYDAPNWVRTDRPVTFGELKTYEEQLQSSGLEPAAINVSLNLPPDLYLMRSTGIDMDINYRYTMPPVKDSSRMDISLNNQFLQSFNLSSKQEANRLLLRIPVLQGLLDGKTDVSIPALKLGATNQLRFDFEYMNPMPGGSVDNCITFQPVQNHVVIGDDSTIDFSKYYHFIPMPDLRAFANAGFPFSRMADLSQTITVMPKAPNEAQMETLLNTVGFIGAQTGFPAINLTVTDDGSTIQGKDADIMIIGGIPDKLKDDKQIDLLVQATESWVKTPMRQTPFPGIVPDESDRAAETRSTLTSSGAMAAVIGFQSPYNDQRSVIALLADSPRGYEMLNDAVNDSGKRATMFGSVAVIRESGINSLRVGDVYYVGHLPWFERVWYALANHPILLAVLAAISVILLAWVLWRLLRIISRRRLNPDNE", "notes": "BcsB, amplified from genomic DNA of E. coli 1094 bcsA^HA-FLAG; source: E. coli BL21 (DE3), bcs^HisRQA^HA-FLAGB-pCDF-Duet, co-expressed, detergent-solubilised membranes; purified complex for EM"}, "B2": {"name": "BcsB (natural protein, E. coli 1094, UniProt P37652 26-779, looked up)", "chain": "B1 chain", "notes": "BcsB, E. coli strain 1094, untagged; source: E. coli 1094 bcsA^HA-FLAG 2K7 strain (bcs operons overexpressed from the chromosome), solubilised membranes; purified complex for EM"}}, "key": {"[1]": {"biological_target": "the molecule itself", "assay": "negative-stain electron microscopy; Inner membrane subcomplex purified from BL21 (DE3) expressing bcs^HisRQA^HA-FLAGB-pCDF-Duet; reconstruction at 21.1 Å"}, "[2]": {"biological_target": "the molecule itself", "assay": "negative-stain electron microscopy; Bcs macrocomplex purified from E. coli 1094 bcsA^HA-FLAG 2K7, GraFix cross-linked in the gradient; non-symmetrized reconstruction at 16.7 Å"}}}
{"protein": "B1", "values": [{"measurement": "stoichiometry N", "setting": "[1]", "result": 6}]}
{"protein": "B2", "values": [{"measurement": "stoichiometry N", "setting": "[2]", "result": 6}]}
